What is called Km is the concentration of substrate that gives half-maximal velocity. As a reminder, the kcat is the maximal rate divided by the concentration of active sites. What is called kcat/Km is the turnover number divided by the Michaelis constant.

In paper PMC4104443 one finds Km, kcat and kcat/Km data, which are given here for one substance.

The test system of the data set is O=NO. Nature of the data set: purified protein. As to conditions: 50 mM potassium phosphate pH 7.0, 4 °C, anaerobic, nitrite up to 50 mM.

Regarding “AxNiR (AxCuNiR) (Achromobacter xylosoxidans; F330C)”, the Km was 1200 ± 100 µM, the catalytic constant (kcat) came out at 310 s⁻¹ and the kcat/Km stood at 260000 M⁻¹ s⁻¹.
